Seven molecules from patent US20200079833A1 (AstraZeneca / MedImmune, published 2020) can be followed below.

The labels stand for the following.
T1: glucose-dependent insulinotropic peptide (gastric inhibitory polypeptide) receptor (GIPR), primary cAMP assay … (human, UniProt P48546 22-466)
T1 sequence (looked up): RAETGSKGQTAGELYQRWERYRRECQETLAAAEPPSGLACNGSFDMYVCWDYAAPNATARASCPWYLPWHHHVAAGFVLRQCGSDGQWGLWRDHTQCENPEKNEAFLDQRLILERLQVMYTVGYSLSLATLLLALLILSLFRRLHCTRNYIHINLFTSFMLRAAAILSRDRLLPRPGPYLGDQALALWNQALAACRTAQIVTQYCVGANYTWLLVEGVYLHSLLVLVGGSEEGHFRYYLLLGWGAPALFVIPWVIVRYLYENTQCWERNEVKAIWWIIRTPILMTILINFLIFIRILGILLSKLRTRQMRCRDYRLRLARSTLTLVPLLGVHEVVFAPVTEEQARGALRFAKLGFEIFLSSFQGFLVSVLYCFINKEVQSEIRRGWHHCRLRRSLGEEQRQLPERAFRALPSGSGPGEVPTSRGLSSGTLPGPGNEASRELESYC

B1: SEQ ID NO: 449 (peptide)
peptide: H[Aib]EGS[αMeF]TSDV[αMeS]SK([PEG2′-PEG2′-γGlu-Lauroyl])LEGEK([PEG2′-PEG2′-γGlu-Lauroyl])A[αMeK]EFIK([PEG2′-PEG2′-γGlu-Lauroyl])FVVEGG-NH2
B2: SEQ ID NO: 457 (peptide)
peptide: H[Aib]EGS[αMeF]TSDK([PEG2′-PEG2′-γGlu-Lauroyl])SSYLEGEK([PEG2′-PEG2′-γGlu-Lauroyl])A[αMeK]EFIAK([PEG2′-PEG2′-γGlu-Lauroyl])VVEGG-NH2
B3: SEQ ID NO: 444 (peptide)
peptide: H[Aib]EGS[αMeF]TSDVSK([PEG2′-PEG2′-γGlu-Lauroyl])YLEGK([PEG2′-PEG2′-γGlu-Lauroyl])AA[αMeK]EFIK([PEG2′-PEG2′-γGlu-Lauroyl])FVVEGG-NH2
B4: SEQ ID NO: 459 (peptide)
peptide: H[Aib]EGS[αMeF]TSDVSK([PEG2′-PEG2′-γGlu-Lauroyl])YLEK([PEG2′-PEG2′-γGlu-Lauroyl])EAA[αMeK]EFIAK([PEG2′-PEG2′-γGlu-Lauroyl])VVEGG-NH2
B5: SEQ ID NO: 456 (peptide)
peptide: H[Aib]EGS[αMeF]TSDK([PEG2′-PEG2′-γGlu-Lauroyl])SSYLEGK([PEG2′-PEG2′-γGlu-Lauroyl])AA[αMeK]EFIAK([PEG2′-PEG2′-γGlu-Lauroyl])VVEGG-NH2
B6: SEQ ID NO: 447 (peptide)
peptide: H[Aib]EGS[αMeF]TSDV[αMeS]SK([PEG2′-PEG2′-γGlu-Lauroyl])LEK([PEG2′-PEG2′-γGlu-Lauroyl])EAA[αMeK]EFIK([PEG2′-PEG2′-γGlu-Lauroyl])FVVEGG-NH2
B7: SEQ ID NO: 461 (peptide)
peptide: H[Aib]EGS[αMeF]TSDVSK([PEG2′-PEG2′-γGlu-Lauroyl])YLEGEK([PEG2′-PEG2′-γGlu-Lauroyl])A[αMeK]EFIAK([PEG2′-PEG2′-γGlu-Lauroyl])VVEGG-NH2

Starred links: 1 amine or outer side, 2 acyl side, 3 side chain; linkers in the order of their positions; H or OH if unused. Non-standard residues stand in square brackets, D forms with d. Groups on a side chain read outwards from the residue. Primed or numbered codes have the meaning given here. No end group written: not given here. *: point of attachment. γGlu = O=C(O)[C@H](CCC(=O)[*:2])N[*:1]; αMeF = C[C@](N)(Cc1ccccc1)C(=O)O; αMeK = C[C@](N)(CCCCN)C(=O)O; Lauroyl = CCCCCCCCCCCC(=O)*; αMeS = C[C@](N)(CO)C(=O)O; PEG2′ = not defined here; Aib = CC(C)(N)C(=O)O

Chain of glucagon receptor (GCGR), primary cAMP assay cell line (P47871 26-477): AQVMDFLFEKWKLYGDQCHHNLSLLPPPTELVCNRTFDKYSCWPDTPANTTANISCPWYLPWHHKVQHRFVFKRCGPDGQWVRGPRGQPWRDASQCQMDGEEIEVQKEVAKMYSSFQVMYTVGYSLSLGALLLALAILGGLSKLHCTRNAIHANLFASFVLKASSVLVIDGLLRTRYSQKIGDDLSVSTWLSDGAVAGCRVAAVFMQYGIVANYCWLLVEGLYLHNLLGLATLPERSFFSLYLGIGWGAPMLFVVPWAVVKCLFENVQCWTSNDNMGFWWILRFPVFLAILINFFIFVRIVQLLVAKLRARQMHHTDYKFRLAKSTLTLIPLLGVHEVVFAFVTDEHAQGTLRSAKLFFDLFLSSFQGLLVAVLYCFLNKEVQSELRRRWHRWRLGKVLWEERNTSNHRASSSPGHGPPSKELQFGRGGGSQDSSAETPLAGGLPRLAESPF

The target in one test is T1, glucose-dependent insulinotropic …. In words: cell-based or functional assay.
Take B1: the “cAMP Primary assay EC50, n1” value is 19.7 nM and the “cAMP Primary assay EC50, n2” value was found to be 19.7 nM.

On to B2, for which the “cAMP Primary assay EC50, n1” value worked out at 19.8 nM and the “cAMP Primary assay EC50, n2” value amounted to 19.8 nM.

In the case of B3, the “cAMP Primary assay EC50, n1” value is 19.7 nM and the “cAMP Primary assay EC50, n2” value came to 19.7 nM.

As to B4, the “cAMP Primary assay EC50, n1” value was found to be 19.7 nM and the “cAMP Primary assay EC50, n2” value is 19.7 nM.

As to B5, the “cAMP Primary assay EC50, n1” value was 20 nM and the “cAMP Primary assay EC50, n2” value was determined as 20 nM.

Regarding B6, the “cAMP Primary assay EC50, n1” value is 19.7 nM and the “cAMP Primary assay EC50, n2” value came to 19.7 nM.

Turning to B7, the “cAMP Primary assay EC50, n1” value worked out at 19.8 nM and the “cAMP Primary assay EC50, n2” value was found to be 19.8 nM.

The next test has as its target glucagon receptor (GCGR), primary cAMP assay cell line (human, UniProt P47871 26-477). Kind of test: cell-based or functional assay.
On to B1, for which the “cAMP Primary assay EC50, n1” value is 19.7 nM and the “cAMP Primary assay EC50, n2” value was 19.7 nM.

With B2, the “cAMP Primary assay EC50, n1” value was determined as 19.8 nM and the “cAMP Primary assay EC50, n2” value was 19.8 nM.

Regarding B3, the “cAMP Primary assay EC50, n1” value was 19.7 nM and the “cAMP Primary assay EC50, n2” value is 19.7 nM.

With B4, the “cAMP Primary assay EC50, n1” value was 19.7 nM and the “cAMP Primary assay EC50, n2” value worked out at 19.7 nM.

Regarding B5, the “cAMP Primary assay EC50, n1” value is 10 nM and the “cAMP Primary assay EC50, n2” value came to 20 nM.

Take B6: the “cAMP Primary assay EC50, n1” value was determined as 19.7 nM and the “cAMP Primary assay EC50, n2” value was determined as 19.7 nM.

In the case of B7, the “cAMP Primary assay EC50, n1” value worked out at 19.8 nM and the “cAMP Primary assay EC50, n2” value was 19.8 nM.

A further test addresses GLP-1 receptor (GLP-1R), primary cAMP assay cell line (human, UniProt P43220 24-463). Kind of test: cell-based or functional assay.
In the case of B1, the “cAMP Primary assay EC50, Mean pM GLP-1R” value was 246 pM; the “cAMP Primary assay EC50, n1” value is 216 pM; the “cAMP Primary assay EC50, n2” value was 276 pM.

Consider B2, for which the “cAMP Primary assay EC50, Mean pM GLP-1R” value was determined as 142 pM; the “cAMP Primary assay EC50, n1” value came to 127 pM; the “cAMP Primary assay EC50, n2” value amounted to 156 pM.

With B3, the “cAMP Primary assay EC50, Mean pM GLP-1R” value stood at 144 pM; the “cAMP Primary assay EC50, n1” value was 125 pM; the “cAMP Primary assay EC50, n2” value came to 162 pM.

As to B4, the “cAMP Primary assay EC50, Mean pM GLP-1R” value was determined as 100 pM; the “cAMP Primary assay EC50, n1” value was found to be 89.5 pM; the “cAMP Primary assay EC50, n2” value is 111 pM.

B5: the “cAMP Primary assay EC50, Mean pM GLP-1R” value came to 170 pM; the “cAMP Primary assay EC50, n1” value turned out to be 116 pM; the “cAMP Primary assay EC50, n2” value was 224 pM.

On to B6, for which the “cAMP Primary assay EC50, Mean pM GLP-1R” value worked out at 150 pM; the “cAMP Primary assay EC50, n1” value was 123 pM; the “cAMP Primary assay EC50, n2” value was found to be 176 pM.

Consider B7, for which the “cAMP Primary assay EC50, Mean pM GLP-1R” value was 110 pM; the “cAMP Primary assay EC50, n1” value amounted to 74.5 pM; the “cAMP Primary assay EC50, n2” value is 145 pM.
